Reference: IntAct's records for PubMed 23559067

B1: X-linked retinitis pigmentosa GTPase regulator (Homo sapiens), Q92834 (parent)
chain: MREPEELMPDSGAVFTFGKSKFAENNPGKFWFKNDVPVHLSCGDEHSAVVTGNNKLYMFGSNNWGQLGLGSKSAISKPTCVKALKPEKVKLAACGRNHTLVSTEGGNVYATGGNNEGQLGLGDTEERNTFHVISFFTSEHKIKQLSAGSNTSAALTEDGRLFMWGDNSEGQIGLKNVSNVCVPQQVTIGKPVSWISCGYYHSAFVTTDGELYVFGEPENGKLGLPNQLLGNHRTPQLVSEIPEKVIQVACGGEHTVVLTENAVYTFGLGQFGQLGLGTFLFETSEPKVIENIRDQTISYISCGENHTALITDIGLMYTFGDGRHGKLGLGLENFTNHFIPTLCSNFLRFIVKLVACGGCHMVVFAAPHRGVAKEIEFDEINDTCLSVATFLPYSSLTSGNVLQRTLSARMRRRERERSPDSFSMRRTLPPIEGTLGLSACFLPNSVFPRCSERNLQESVLSEQDLMQPEEPDYLLDEMTKEAEIDNSSTVESLGETTDILNMTHIMSLNSNEKSLKLSPVQKQKKQQTIGELTQDTALTENDDSDEYEEMSEMKEGKACKQHVSQGIFMTQPATTIEAFSDEEVGNDTGQVGPQADTDGEGLQKEVYRHENNNGVDQLDAKEIEKESDGGHSQKESEAEEIDSEKETKLAEIAGMKDLREREKSTKKMSPFFGNLPDRGMNTESEENKDFVKKRESCKQDVIFDSERESVEKPDSYMEGASESQQGIADGFQQPEAIEFSSGEKEDDEVETDQNIRYGRKLIEQGNEKETKPIISKSMAKYDFKCDRLSEIPEEKEGAEDSKGNGIEEQEVEANEENVKVHGGRKEKTEILSDDLTDKAEDHEFSKTEELKLEDVDEEINAENVESKKKTVGDDESVPTGYHSKTEGAERTNDDSSAETIEKKEKANLEERAICEYNENPKGYMLDDADSSSLEILENSETTPSKDMKKTKKIFLFKRVPSINQKIVKNNNEPLPEIKSIGDQIILKSDNKDADQNHMSQNHQNIPPTNTERRSKSCTIL
B2: Retinal rod rhodopsin-sensitive cGMP 3',5'-cyclic phosphodiesterase subunit delta (Homo sapiens), O43924 (parent)
chain: MSAKDERAREILRGFKLNWMNLRDAETGKILWQGTEDLSVPGVEHEARVPKKILKCKAVSRELNFSSTEQMEKFRLEQKVYFKGQCLEEWFFEFGFVIPNSTNTWQSLIEAAPESQMMPASVLTGNVIIETKFFDDDLLVSTSRVRLFYV
partner: B1 chain

Variants of: B1
Settings: with pde6d_human PDE6D, O43924

Row | effect of a mutation on the interaction | Variant
1 | disrupting interaction | E216R

Variants of: B2
Settings: with rpgr_human RPGR, Q92834

Row | effect of a mutation on the interaction | Variant
2 | disrupting interaction | R48E
